This is an account of results in US20220204580A1 (AstraZeneca / MedImmune, published 2022).

Experiment [1] addresses T1, human amylin receptor (calcitonin receptor co-expressed with receptor activity modifying protein, RAMP3) (human, UniProt P30988 25-474; O60896 24-148).
T1 sequence (looked up) 1: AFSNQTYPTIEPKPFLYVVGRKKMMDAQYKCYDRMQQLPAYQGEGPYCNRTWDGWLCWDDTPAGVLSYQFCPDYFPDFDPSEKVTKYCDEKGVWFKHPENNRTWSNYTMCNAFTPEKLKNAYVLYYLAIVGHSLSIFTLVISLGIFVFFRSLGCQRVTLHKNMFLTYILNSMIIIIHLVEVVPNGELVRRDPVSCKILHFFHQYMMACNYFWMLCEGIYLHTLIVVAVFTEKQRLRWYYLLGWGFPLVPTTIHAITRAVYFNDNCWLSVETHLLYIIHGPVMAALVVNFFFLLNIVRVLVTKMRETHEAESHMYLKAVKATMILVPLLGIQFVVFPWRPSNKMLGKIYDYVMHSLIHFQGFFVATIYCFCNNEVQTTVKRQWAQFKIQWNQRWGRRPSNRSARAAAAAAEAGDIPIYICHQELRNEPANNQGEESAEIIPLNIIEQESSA
T1 sequence (looked up) 2: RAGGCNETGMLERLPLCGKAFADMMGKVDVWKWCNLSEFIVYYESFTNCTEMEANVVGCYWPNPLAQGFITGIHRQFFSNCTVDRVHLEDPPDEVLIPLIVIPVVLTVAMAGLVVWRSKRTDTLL
Nature of the experiment: cell-based or functional assay.

The target of experiment [2] is T2, human calcitonin receptor (human, UniProt P30988 25-474).
T2 sequence (looked up): T1 sequence (looked up) 1
Nature of the experiment: cell-based or functional assay.

Numbered stars: 1 amine (or outer) side, 2 acyl side, 3 side chain; on linkers, the order of the positions; unused ones are H or OH. Bridge positions count the residues as written; N and C are the ends. Square brackets hold non-standard residues; d marks the D form. Side chains are listed from the residue outwards. Ends that are not written are not given here. * marks the point of attachment. C18 diacid = O=C(O)CCCCCCCCCCCCCCCCC(=O)*; γGlu = O=C(O)[C@H](CCC(=O)[*:2])N[*:1]; AEEA = NCCOCCOCC(=O)O; Aib = CC(C)(N)C(=O)O

As for K([AEEA-AEEA-γGlu-C18 diacid])GGGKCNTATCATQRLANFLVHSSNNFGPILPPTNVGSNTY-NH2 (disulfide 6-11) [Peptide 7 (SEQ ID NO: 7)], in experiment [1], the “EC50 (cAMP production)” value was found to be 0.173 nM and the “Ratio (EC50 hCTR / EC50 hAMYR3)” value came out at 12. In experiment [2], the “EC50 (cAMP production)” value came to 2.16 nM.

B1: Peptide 55 (SEQ ID NO: 55) (peptide)
peptide: K([γGlu-C18 diacid])KCNTATCATQRLANFLSHSS[Aib]NFGPILPPTNVGSPTY-NH2
modifications: disulfide 3-8; N-terminus assumed
SMILES: CC[C@H](C)[C@H](NC(=O)[C@@H]1CCCN1C(=O)CNC(=O)[C@H](Cc1ccccc1)NC(=O)[C@H](CC(N)=O)NC(=O)C(C)(C)NC(=O)[C@H](CO)NC(=O)[C@H](CO)NC(=O)[C@H](Cc1c[nH]cn1)NC(=O)[C@H](CO)NC(=O)[C@H](CC(C)C)NC(=O)[C@H](Cc1ccccc1)NC(=O)[C@H](CC(N)=O)NC(=O)[C@H](C)NC(=O)[C@H](CC(C)C)NC(=O)[C@H](CCCNC(=N)N)NC(=O)[C@H](CCC(N)=O)NC(=O)[C@@H](NC(=O)[C@H](C)NC(=O)[C@@H]1CSSC[C@H](NC(=O)[C@H](CCCCN)NC(=O)[C@@H](N)CCCCNC(=O)CC[C@H](NC(=O)CCCCCCCCCCCCCCCCC(=O)O)C(=O)O)C(=O)N[C@@H](CC(N)=O)C(=O)N[C@@H]([C@@H](C)O)C(=O)N[C@@H](C)C(=O)N[C@@H]([C@@H](C)O)C(=O)N1)[C@@H](C)O)C(=O)N[C@@H](CC(C)C)C(=O)N1CCC[C@H]1C(=O)N1CCC[C@H]1C(=O)N[C@H](C(=O)N[C@@H](CC(N)=O)C(=O)N[C@H](C(=O)NCC(=O)N[C@@H](CO)C(=O)N1CCC[C@H]1C(=O)N[C@H](C(=O)N[C@@H](Cc1ccc(O)cc1)C(N)=O)[C@@H](C)O)C(C)C)[C@@H](C)O
In the case of B1, the “EC50 (cAMP production)” value in experiment [1] amounted to 0.678 nM; in experiment [2] it was 1.87 nM. Further, in experiment [1], the “Ratio (EC50 hCTR / EC50 hAMYR3)” value came to 3.

B2: Peptide 56 (SEQ ID NO: 56) (peptide)
peptide: K([γGlu-C18 diacid])CNTATCATQRLANFLVHSS[Aib]NFGPILPPTNVGSNTY-NH2
modifications: disulfide 2-7; N-terminus assumed
SMILES: CC[C@H](C)[C@H](NC(=O)[C@@H]1CCCN1C(=O)CNC(=O)[C@H](Cc1ccccc1)NC(=O)[C@H](CC(N)=O)NC(=O)C(C)(C)NC(=O)[C@H](CO)NC(=O)[C@H](CO)NC(=O)[C@H](Cc1c[nH]cn1)NC(=O)[C@@H](NC(=O)[C@H](CC(C)C)NC(=O)[C@H](Cc1ccccc1)NC(=O)[C@H](CC(N)=O)NC(=O)[C@H](C)NC(=O)[C@H](CC(C)C)NC(=O)[C@H](CCCNC(=N)N)NC(=O)[C@H](CCC(N)=O)NC(=O)[C@@H](NC(=O)[C@H](C)NC(=O)[C@@H]1CSSC[C@H](NC(=O)[C@@H](N)CCCCNC(=O)CC[C@H](NC(=O)CCCCCCCCCCCCCCCCC(=O)O)C(=O)O)C(=O)N[C@@H](CC(N)=O)C(=O)N[C@@H]([C@@H](C)O)C(=O)N[C@@H](C)C(=O)N[C@@H]([C@@H](C)O)C(=O)N1)[C@@H](C)O)C(C)C)C(=O)N[C@@H](CC(C)C)C(=O)N1CCC[C@H]1C(=O)N1CCC[C@H]1C(=O)N[C@H](C(=O)N[C@@H](CC(N)=O)C(=O)N[C@H](C(=O)NCC(=O)N[C@@H](CO)C(=O)N[C@@H](CC(N)=O)C(=O)N[C@H](C(=O)N[C@@H](Cc1ccc(O)cc1)C(N)=O)[C@@H](C)O)C(C)C)[C@@H](C)O
B2: in experiment [1], the “EC50 (cAMP production)” value came out at 0.07 nM and the “Ratio (EC50 hCTR / EC50 hAMYR3)” value worked out at 7. In addition, the “EC50 (cAMP production)” value in experiment [2] is 0.493 nM.

B3: Peptide 53 (SEQ ID NO: 53) (peptide)
peptide: K([γGlu-C18 diacid])KCNTATCATQRLANFLSHSS[Aib]NFGPILPPTPVGSNTY-NH2
modifications: disulfide 3-8; N-terminus assumed
SMILES: CC[C@H](C)[C@H](NC(=O)[C@@H]1CCCN1C(=O)CNC(=O)[C@H](Cc1ccccc1)NC(=O)[C@H](CC(N)=O)NC(=O)C(C)(C)NC(=O)[C@H](CO)NC(=O)[C@H](CO)NC(=O)[C@H](Cc1c[nH]cn1)NC(=O)[C@H](CO)NC(=O)[C@H](CC(C)C)NC(=O)[C@H](Cc1ccccc1)NC(=O)[C@H](CC(N)=O)NC(=O)[C@H](C)NC(=O)[C@H](CC(C)C)NC(=O)[C@H](CCCNC(=N)N)NC(=O)[C@H](CCC(N)=O)NC(=O)[C@@H](NC(=O)[C@H](C)NC(=O)[C@@H]1CSSC[C@H](NC(=O)[C@H](CCCCN)NC(=O)[C@@H](N)CCCCNC(=O)CC[C@H](NC(=O)CCCCCCCCCCCCCCCCC(=O)O)C(=O)O)C(=O)N[C@@H](CC(N)=O)C(=O)N[C@@H]([C@@H](C)O)C(=O)N[C@@H](C)C(=O)N[C@@H]([C@@H](C)O)C(=O)N1)[C@@H](C)O)C(=O)N[C@@H](CC(C)C)C(=O)N1CCC[C@H]1C(=O)N1CCC[C@H]1C(=O)N[C@H](C(=O)N1CCC[C@H]1C(=O)N[C@H](C(=O)NCC(=O)N[C@@H](CO)C(=O)N[C@@H](CC(N)=O)C(=O)N[C@H](C(=O)N[C@@H](Cc1ccc(O)cc1)C(N)=O)[C@@H](C)O)C(C)C)[C@@H](C)O
In the case of B3, in experiment [1], the “EC50 (cAMP production)” value was determined as 0.098 nM and the “Ratio (EC50 hCTR / EC50 hAMYR3)” value was determined as 2. The “EC50 (cAMP production)” value in experiment [2] amounted to 0.235 nM.

B4: Peptide 54 (SEQ ID NO: 54) (peptide)
peptide: K([γGlu-C18 diacid])KCNTATCATQRLANFLSHSS[Aib]NFGPILPPTNVPSNTY-NH2
modifications: disulfide 3-8; N-terminus assumed
SMILES: CC[C@H](C)[C@H](NC(=O)[C@@H]1CCCN1C(=O)CNC(=O)[C@H](Cc1ccccc1)NC(=O)[C@H](CC(N)=O)NC(=O)C(C)(C)NC(=O)[C@H](CO)NC(=O)[C@H](CO)NC(=O)[C@H](Cc1c[nH]cn1)NC(=O)[C@H](CO)NC(=O)[C@H](CC(C)C)NC(=O)[C@H](Cc1ccccc1)NC(=O)[C@H](CC(N)=O)NC(=O)[C@H](C)NC(=O)[C@H](CC(C)C)NC(=O)[C@H](CCCNC(=N)N)NC(=O)[C@H](CCC(N)=O)NC(=O)[C@@H](NC(=O)[C@H](C)NC(=O)[C@@H]1CSSC[C@H](NC(=O)[C@H](CCCCN)NC(=O)[C@@H](N)CCCCNC(=O)CC[C@H](NC(=O)CCCCCCCCCCCCCCCCC(=O)O)C(=O)O)C(=O)N[C@@H](CC(N)=O)C(=O)N[C@@H]([C@@H](C)O)C(=O)N[C@@H](C)C(=O)N[C@@H]([C@@H](C)O)C(=O)N1)[C@@H](C)O)C(=O)N[C@@H](CC(C)C)C(=O)N1CCC[C@H]1C(=O)N1CCC[C@H]1C(=O)N[C@H](C(=O)N[C@@H](CC(N)=O)C(=O)N[C@H](C(=O)N1CCC[C@H]1C(=O)N[C@@H](CO)C(=O)N[C@@H](CC(N)=O)C(=O)N[C@H](C(=O)N[C@@H](Cc1ccc(O)cc1)C(N)=O)[C@@H](C)O)C(C)C)[C@@H](C)O
As to B4, in experiment [1], the “EC50 (cAMP production)” value came out at 7.59 nM and the “Ratio (EC50 hCTR / EC50 hAMYR3)” value was determined as 0.2. Further, the “EC50 (cAMP production)” value in experiment [2] amounted to 1.51 nM.
